From PMC2141641 (The Journal of Cell Biology, 1997)

B1: GST-CD36 fusion protein FP67-157 (domain or fragment, human, UniProt P16671 67-157, looked up)
chain: IFDVQNPQEVMMNSSNIQVKQRGPYTYRVRFLAKENVTQDAEDNTVSFLQPNGAIFEPSLSVGTEADNFTVLNLAVAAASHIYQNQFVQMI
B2: GST-CD36 fusion protein FP93-120 (domain or fragment, human, UniProt P16671 93-120, looked up)
chain: YRVRFLAKENVTQDAEDNTVSFLQPNGA

How the values were obtained:
Assay in all cases: radioligand binding
Thrombospondin-1 = Thrombospondin-1 (human, UniProt P07996 19-1170, 125I label (radiolabeled TSP-1) in the binding assays)
[1] = target: B2
[2] = target: CD36 expressed on Bowes melanoma cells stably transfected with human CD36 cDNA (human, UniProt P16671 1-472)
Sequence of CD36 expressed on Bowes melanoma cells stably transfected with human CD36 cDNA (P16671 whole entry): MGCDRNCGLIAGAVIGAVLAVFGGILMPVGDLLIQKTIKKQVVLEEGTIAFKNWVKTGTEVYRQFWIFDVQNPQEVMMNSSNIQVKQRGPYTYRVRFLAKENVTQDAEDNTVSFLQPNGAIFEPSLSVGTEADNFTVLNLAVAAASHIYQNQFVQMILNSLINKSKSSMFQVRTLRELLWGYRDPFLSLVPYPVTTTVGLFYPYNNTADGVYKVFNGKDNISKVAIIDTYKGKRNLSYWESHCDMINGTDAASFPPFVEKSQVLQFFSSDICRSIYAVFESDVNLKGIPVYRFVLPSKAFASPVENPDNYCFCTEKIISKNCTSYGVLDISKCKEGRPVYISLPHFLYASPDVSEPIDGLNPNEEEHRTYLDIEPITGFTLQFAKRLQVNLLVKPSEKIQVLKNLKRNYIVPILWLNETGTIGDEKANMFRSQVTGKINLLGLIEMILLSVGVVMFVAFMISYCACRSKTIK

Sequence of Thrombospondin-1 (P07996 19-1170): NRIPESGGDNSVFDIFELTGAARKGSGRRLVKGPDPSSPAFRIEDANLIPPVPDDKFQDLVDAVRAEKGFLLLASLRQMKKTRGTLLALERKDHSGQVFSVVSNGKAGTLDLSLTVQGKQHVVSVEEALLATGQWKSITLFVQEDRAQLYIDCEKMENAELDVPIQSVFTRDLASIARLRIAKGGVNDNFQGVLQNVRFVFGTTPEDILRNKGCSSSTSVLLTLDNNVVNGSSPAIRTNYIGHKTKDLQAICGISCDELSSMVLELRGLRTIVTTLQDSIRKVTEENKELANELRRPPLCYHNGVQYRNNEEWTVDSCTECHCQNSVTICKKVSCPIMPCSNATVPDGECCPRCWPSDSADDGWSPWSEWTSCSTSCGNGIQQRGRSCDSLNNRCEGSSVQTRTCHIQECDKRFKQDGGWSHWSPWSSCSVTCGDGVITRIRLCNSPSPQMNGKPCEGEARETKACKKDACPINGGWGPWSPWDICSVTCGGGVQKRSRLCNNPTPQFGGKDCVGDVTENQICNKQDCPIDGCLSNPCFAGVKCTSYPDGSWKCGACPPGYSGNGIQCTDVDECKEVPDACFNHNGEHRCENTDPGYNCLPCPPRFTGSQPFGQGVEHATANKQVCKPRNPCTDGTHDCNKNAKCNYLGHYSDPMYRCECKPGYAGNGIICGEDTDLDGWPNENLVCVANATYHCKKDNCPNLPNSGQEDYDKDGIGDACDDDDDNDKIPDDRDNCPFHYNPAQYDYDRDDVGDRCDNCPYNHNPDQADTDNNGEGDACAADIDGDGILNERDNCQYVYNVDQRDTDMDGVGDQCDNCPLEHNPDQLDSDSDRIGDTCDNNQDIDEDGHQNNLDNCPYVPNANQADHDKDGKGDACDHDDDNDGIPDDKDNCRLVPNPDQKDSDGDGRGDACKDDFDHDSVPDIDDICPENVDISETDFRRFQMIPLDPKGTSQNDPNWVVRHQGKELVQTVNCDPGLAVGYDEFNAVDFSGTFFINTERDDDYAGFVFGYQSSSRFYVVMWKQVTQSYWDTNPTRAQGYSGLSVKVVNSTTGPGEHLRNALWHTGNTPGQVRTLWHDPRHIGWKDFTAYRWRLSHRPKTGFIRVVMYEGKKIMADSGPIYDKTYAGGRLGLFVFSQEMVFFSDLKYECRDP

Binder	binding result (Thrombospondin-1)	binding result [1]	IC50 [2]
B1	binds	–	–
B2	binds	–	–
SPWDIASVTAGGGVQKRSK [TSP-1 peptide Mal III]	–	binds	8.6 ± 1.12 µM
NGVQYRN [TSP-1 peptide Col overlap]	–	–	30.1 ± 8.88 µM
